In patent US20250289865A1 (TIOC THERAPEUTICS, published 2025):

Tests used:
[1] = target: … short peptide (AFP 158-166) presented on the HLA-A*0201 molecule; test: cell-based or functional assay
[2] = target: T1, AFP peptide on HLA-A*02:01 (human); test: killing
T1 peptide: FMNKFIYEI

[3] = target: peptide on A2 positive (human); test: LDH release; CD8+ T cells, E:T 1:1; AFP-negative, A2-positive control cells. No unit is printed with the value.; fusion: antibody heavy chain variable region (Gln105Cys) on the beta chain, with free VL Ala43Cys; details: chains Valpha:Vbeta

B1: VH105-TCR β-AFP multi-domain bifunctional fusion molecule (other)
TCR alpha: SQQGEEDPQALSIQEGENATMNCSYKDRITNLQWYRQNSGRGLVHLILIRSNEREKHSGRLRVTLDTSKKSSSLLITASRAADTASYFCATDLEAEYKYIFGTGTRLKVLANIQNPDPAVYQLRDSKSSDKSVCLFTDFDSQTNVSQSKDSDVYITDKTVLDMRSMDFKSNSAVAWSNKSDFACANAFNNSIIPEDTFFCSPESS
chain: EVQLVESGGGLVQPGGSLRLSCAASGYSFTGYTMNWVRQAPGKGLEWVALINPYKGVSTYNQKFKDRFTISVDKSKNTAYLQMNSLRAEDTAVYYCARSGYYGDSDWYFDVWGCGTLVTVSSGGGGSETGVTQSPTHLIKTRGQQVTLRCSSQSGHNTVSWYQQALGQGPQFIFQYYRQVANGRGNFPPRFSGLQFPNYSSELNVNALELDDSALYLCASSKDAGPVFFGQGTRLTVVEDLKNVFPPEVAVFEPSECEISHTQKATLVCLATGFYPDHVELSWWVNGKEVHSGVSTDPQPLKEQPALNDSRYALSSRLRVSATFWQNPRNHFRCQVQFYGLSENDEWTQDRAKPVTQIVSAEAWGRAD
VL: DIQMTQSPSSLSASVGDRVTITCRASQDIRNYLNWYQQKPGKCPKLLIYYTSRLESGVPSRFSGSGSGTDYTLTISSLQPEDFATYYCQQGNTLPWTFGQGTKVEIKR
B1 was tested. Which “EC50 of CD8+ T cell killing (LDH release), HepG2 (A2 positive, AFP positive)” value [1] did it give?
Its value is 10.5 nM.

B2: AFP TCR (TCR, V domains shown)
Valpha: SQQGEEDPQALSIQEGENATMNCSYKDRITNLQWYRQNSGRGLVHLILIRSNEREKHSGRLRVTLDTSKKSSSLLITASRAADTASYFCATDLEAEYKYIFGTGTRLKVLA
Vbeta: ETGVTQSPTHLIKTRGQQVTLRCSSQSGHNTVSWYQQALGQGPQFIFQYYRQVANGRGNFPPRFSGLQFPNYSSELNVNALELDDSALYLCASSKDAGPVFFGQGTRLTVV
Does B2 bind [2]?
Result: recognises

What about the EC50 of fusion protein in killing [3] of the same binder?
Its EC50 of fusion protein in killing is 2700 nM.
